Test results: patent US20030219386

Molecular target: soluble recombinant uPAR (suPAR), expressed in Drosophila S2 cells (UniProt Q03405)
Sequence (Q03405 23-299): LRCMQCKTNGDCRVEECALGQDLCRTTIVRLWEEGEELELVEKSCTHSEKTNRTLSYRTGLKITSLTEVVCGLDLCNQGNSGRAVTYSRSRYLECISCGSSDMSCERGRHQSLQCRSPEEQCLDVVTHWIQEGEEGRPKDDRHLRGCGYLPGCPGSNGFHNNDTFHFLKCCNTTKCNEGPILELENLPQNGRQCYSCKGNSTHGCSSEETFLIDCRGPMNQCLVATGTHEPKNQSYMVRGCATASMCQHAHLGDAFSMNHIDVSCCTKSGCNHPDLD

recombinant human single chain urokinase plasminogen activator (scuPA), wild-type, aa1-411 of the mature human sequence, expressed in Drosophila S2 cells
activity of scuPA in complex with suPAR: scuPA prepared in this manner was active in complex with suPAR as well as when activated by plasmin
